Data published in US20200282100A1, “Hemostatic Dressings with Self-Assembling Peptide Hydrogels” (3-D Matrix, Ltd., priority 2016, published 2020).

Test: Congo Red assay of gel formation of peptide solutions in PBS buffer (pH 7.4) with a hemostatic porous dressing
Assay type: physicochemical
Conditions: PBS pH 7.4, compared with pure RADA16 2.5%
Method: A Congo Red assay was performed to assess gel formation of peptide solutions in a PBS buffer solution (pH 7.4) when used with a hemostatic porous dressing. RADA16 2.5% (PuraMatrix®) was plated on a glass slide and also on a hemostatic porous dressing on a glass slide. PuraMatrix® was spread on the surface of the hemostatic porous dressing using a stick. After 30 seconds, 1% Congo Red solution was added around and on top of the gel aliquots and then the excess Congo Red solution was wiped off prior to examination. RADA16 2.5% was also plated on an absorbable gelatin sponge (Surgifoam®, Ethicon) and on an absorbable oxidized regenerated cellulose woven dressing (Surgicel®, Ethicon). Visualization of gel formation determined the success or failure of gelation. […] Specifically, (1) and (2) show pure RADA16 2.5% (PuraMatrix®). In (3), (4), and (5), RADA16 2.5% is shown with absorbable gelatin sponge (Surgifoam®, Ethicon). In (6), (7), and (8), RADA16 2.5% is shown with absorbable oxidized regenerated cellulose woven dressing (Surgicel®, Ethicon).
A Congo Red assay was performed to assess gel formation of peptide solutions in a PBS buffer solution (pH 7.4) when used with a hemostatic porous dressing.
IEIK13 1.3% (pH 3.0) was plated on a glass slide and on a hemostatic porous dressing on a glass slide. […] Visualization of gel formation determined the success or failure of gelation. […]

**Q.** Which “gel formation (visualization)” value (on absorbable gelatin sponge (Surgifoam, Ethicon)) does the source give for RADARADARADARADA [RADA16 2.5%] here?
**A.** gelled

**Q.** What about the “gel formation (visualization)” value (on absorbable oxidized regenerated cellulose woven dressing (Surgicel, Ethicon)) of the same sequence?
**A.** gelled
